In publication PMC8786823, “Flanking sequences influence the activity of TET1 and TET2 methylcytosine dioxygenases and affect genomic 5hmC patterns”:

Target: T1, UHRF2 SRA domain (human, UniProt Q96PU4 419-648)
T1 sequence: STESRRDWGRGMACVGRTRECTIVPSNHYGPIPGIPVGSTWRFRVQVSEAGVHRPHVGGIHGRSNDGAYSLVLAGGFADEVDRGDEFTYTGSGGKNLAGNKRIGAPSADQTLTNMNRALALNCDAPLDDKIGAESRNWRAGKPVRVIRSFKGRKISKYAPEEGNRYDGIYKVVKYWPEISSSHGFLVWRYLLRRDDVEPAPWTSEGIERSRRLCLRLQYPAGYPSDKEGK
Assay: EMSA; 0.5 uM DNA; preferred over mC and unmodified DNA in the same context; 20 mM HEPES pH 7.9, 100 mM NaCl, 2 mM MgCl2, 2 mM DTT, 0.1% NP-40, 5% glycerol; 30 min on ice; 6% PAGE in 0.25X TBE, GelRed stain
Details: protein: recombinant; tags: His; blunt

B1: TET-disf-hmC/TET-disf-rev (dsDNA)
DNA 1: GAAGCTGGGACGCGCGCCGGGAGAGTGCAA
DNA 2: TTGCACTCTCCCGGCGCGCGTCCCAGCTTC
modifications: 5hmC at position 15 of strand 1 (hemihydroxymethylated CpG)
B1: binds.
